These are literature values, as cited in PMC8239185.

Data set [1] deals with Glu286 (UniProt position 286, FFGHPEVYIIV). The experiment in a line: kinetics. Particulars: enzyme during turnover.
For data set [2], the target named is Glu212 (UniProt position 213, RTPDHEDTFFR). Particulars: ground state of the reaction centre (quinones oxidised).

For “Cytochrome c oxidase (aa3, A-type), subunit I (Rhodobacter sphaeroides (Cereibacter sphaeroides))”, in data set [1], the pKa result is given as “≈10”. For “Photosynthetic reaction centre (bRC), L subunit (Rhodobacter sphaeroides (Cereibacter sphaeroides))”, in data set [2], the pKa result is “≈10”.
